Assay results taken from the supplement of paper PMC10724198.
± gives the standard deviation of the averaged measurements.

Columns and labels:
Saccharomyces cerevisiae [1] = assay: protein stability index of tFT-peptide fusion (C-terminal peptide) (PSI (0-1 scale)); higher = more stable (slower turnover)
Experimental: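 MPS profiling in S. cerevisiae of the tFT-X12 degron library: putative degron peptides plus stable controls, 12 aa, fused to the C-terminus of a sfGFP-mCherry timer. Cells are FACS-sorted into 8 mCherry/sfGFP bins and deep-sequenced. PSI runs from 0 (unstable) to 1 (stable). Backgrounds are wild type, das1Δ and doa10Δ at 30 °C, and wild type, das1Δ, cdc34-1 and cdc53-1 at 37 °C; 2-3 technical replicates each.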

Saccharomyces cerevisiae [2] = assay: as above; settings: genetic background: wild type; temperature: 30 C
[3] = genetic background: cdc34-1, temperature: 37 C
[4] = genetic background: cdc53-1, temperature: 37 C
[5] = genetic background: das1 deletion, temperature: 30 C
[6] = genetic background: das1 deletion, temperature: 37 C
[7] = genetic background: doa10 deletion, temperature: 30 C
[8] = genetic background: wild type, temperature: 30 C
[9] = genetic background: wild type, temperature: 37 C
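Note: PSI is a weighted mean of sequencing reads over stability bins, variants kept only with over 10 reads, mCherry proximal and sfGFP distal, peptide attached via GGGS linker.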

Row | Sequence | protein stability index (Saccharomyces cerevisiae [1]; [3]) | protein stability index (Saccharomyces cerevisiae [1]; [4]) | protein stability index (Saccharomyces cerevisiae [1]; [5]) | protein stability index (Saccharomyces cerevisiae [1]; [6]) | protein stability index (Saccharomyces cerevisiae [1]; [7]) | protein stability index (Saccharomyces cerevisiae [1]; [8]) | protein stability index (Saccharomyces cerevisiae [1]; [9]) | protein stability index (Saccharomyces cerevisiae [2])
1 | FFGVFIFPVSCR | 0.203 ± 0.013 | 0.226 ± 0.019 | 0.204 ± 0.028 | 0.292 ± 0.01 | 0.174 ± 0.0071 | 0.209 ± 0.032 | 0.291 ± 0.028 | 0.291 ± 0.022
2 | VVFRCSSFFCLV | 0.54 ± 0.0062 | 0.6156 ± 0.006 | 0.524 ± 0.029 | 0.622 ± 0.015 | 0.387 ± 0.033 | 0.405 ± 0.035 | 0.536 ± 0.0083 | 0.4449 ± 0.002
3 | FCMLCVVFLGSL | 0.43 ± 0.067 | 0.532 ± 0.0092 | 0.39 ± 0.029 | 0.6206 ± 0.0047 | 0.358 ± 0.01 | 0.397 ± 0.015 | 0.596 ± 0.026 | 0.505 ± 0.034
4 | PSRRLRHFATSP | 0.623 ± 0.058 | 0.68 ± 0.021 | 0.736 ± 0.037 | 0.6646 ± 0.0047 | 0.747 ± 0.038 | 0.703 ± 0.0095 | 0.6412 ± 0.00013 | 0.741 ± 0.023
5 | RISYKTKINELI | 0.653 ± 0.038 | 0.735 ± 0.034 | 0.607 ± 0.034 | 0.737 ± 0.01 | 0.262 ± 0.0063 | 0.287 ± 0.052 | 0.5426 ± 0.003 | 0.434 ± 0.043
6 | RPRVAGLMTLVS | 0.698 ± 0.013 | 0.686 ± 0.052 | 0.543 ± 0.018 | 0.707 ± 0.025 | 0.459 ± 0.03 | 0.459 ± 0.032 | 0.672 ± 0.0094 | 0.5 ± 0.0055
7 | LVFFAYLIRGAL | 0.344 ± 0.0086 | 0.462 ± 0.011 | 0.364 ± 0.031 | 0.518 ± 0.015 | 0.0526 ± 0.0068 | 0.0682 ± 0.0051 | 0.0558 ± 0.0015 | 0.108 ± 0.036
8 | FGFFDIKLPVVA | 0.515 ± 0.037 | 0.51 ± 0.022 | 0.38 ± 0.024 | 0.5539 ± 0.0013 | 0.345 ± 0.012 | 0.373 ± 0.041 | 0.518 ± 0.017 | 0.486 ± 0.018
9 | DKKPMKKILLCI | 0.451 ± 0.0075 | 0.565 ± 0.068 | 0.494 ± 0.025 | 0.6477 ± 0.0033 | 0.0933 ± 0.02 | 0.0973 ± 0.0084 | 0.104 ± 0.0016 | 0.151 ± 0.029
10 | GPCRPWIVVYAG | 0.566 ± 0.036 | 0.595 ± 0.042 | 0.357 ± 0.034 | 0.5831 ± 0.0018 | 0.295 ± 0.022 | 0.333 ± 0.018 | 0.512 ± 0.0063 | 0.475 ± 0.066
11 | FYACRLWLVSVR | 0.161 ± 0.027 | 0.196 ± 0.011 | 0.191 ± 0.023 | 0.313 ± 0.0039 | 0.158 ± 0.007 | 0.184 ± 0.021 | 0.269 ± 0.0029 | 0.29 ± 0.0033
12 | WCLLGVPVRVVV | 0.373 ± 0.014 | 0.391 ± 0.056 | 0.307 ± 0.042 | 0.462 ± 0.0047 | 0.253 ± 0.0041 | 0.288 ± 0.042 | 0.441 ± 0.0045 | 0.425 ± 0.033
13 | FLIFGMVDFAVV | 0.247 ± 0.035 | 0.3554 ± 0.0029 | 0.231 ± 0.04 | 0.3883 ± 0.0012 | 0.202 ± 0.0019 | 0.226 ± 0.019 | 0.387 ± 0.035 | 0.331 ± 0.018
14 | RLVRILSTILLN | 0.487 ± 0.079 | 0.638 ± 0.038 | 0.576 ± 0.028 | 0.703 ± 0.052 | 0.0769 ± 0.029 | 0.1 ± 0.014 | 0.0569 ± 0.034 | 0.177 ± 0.049
15 | VRVLAALVLCVV | 0.159 ± 0.029 | 0.306 ± 0.021 | 0.217 ± 0.019 | 0.3799 ± 0.00079 | 0.156 ± 0.0081 | 0.189 ± 0.011 | 0.322 ± 0.011 | 0.312 ± 0.0089
16 | AALFNYVVCFCA | 0.474 ± 0.059 | 0.537 ± 0.035 | 0.377 ± 0.025 | 0.512 ± 0.013 | 0.301 ± 0.0065 | 0.323 ± 0.015 | 0.436 ± 0.025 | 0.358 ± 0.0079
17 | VPPLPPPGPPTF | 0.705 ± 0.0084 | 0.7583 ± 0.0011 | 0.667 ± 0.012 | 0.733 ± 0.014 | 0.683 ± 0.029 | 0.6765 ± 0.0056 | 0.708 ± 0.011 | 0.699 ± 0.015
18 | FSFCFCFPLSSL | 0.5603 ± 0.0013 | 0.683 ± 0.053 | 0.528 ± 0.018 | 0.6285 ± 0.0038 | 0.209 ± 0.011 | 0.248 ± 0.013 | 0.407 ± 0.015 | 0.301 ± 0.0084
19 | VYFASCVVLLMV | 0.159 ± 0.028 | 0.188 ± 0.025 | 0.194 ± 0.029 | 0.3194 ± 0.0019 | 0.159 ± 0.0018 | 0.174 ± 0.017 | 0.251 ± 0.015 | 0.264 ± 0.029
20 | FLIFVVIGGVGL | 0.259 ± 0.0043 | 0.395 ± 0.016 | 0.281 ± 0.027 | 0.466 ± 0.013 | 0.2268 ± 0.0012 | 0.276 ± 0.023 | 0.435 ± 0.057 | 0.2837 ± 0.0028
21 | VLVWLRLRVGLR | 0.212 ± 0.025 | 0.322 ± 0.016 | 0.218 ± 0.045 | 0.381 ± 0.0098 | 0.199 ± 0.0058 | 0.213 ± 0.021 | 0.3468 ± 0.0019 | 0.3002 ± 0.00052
22 | KTRQLINKITQM | 0.6601 ± 0.00086 | 0.693 ± 0.019 | 0.62 ± 0.018 | 0.7358 ± 0.0036 | 0.137 ± 0.024 | 0.153 ± 0.031 | 0.288 ± 0.031 | 0.254 ± 0.072
23 | GGRHYGILDLSL | 0.638 ± 0.063 | 0.708 ± 0.013 | 0.677 ± 0.019 | 0.719 ± 0.024 | 0.6927 ± 0.0056 | 0.677 ± 0.025 | 0.6992 ± 0.00076 | 0.7174 ± 0.0062
24 | CSAVYNLHLLYS | 0.696 ± 0.022 | 0.745 ± 0.012 | 0.626 ± 0.013 | 0.741 ± 0.011 | 0.469 ± 0.04 | 0.48 ± 0.022 | 0.6452 ± 0.0029 | 0.519 ± 0.076
25 | VFCCHSSRFVFA | 0.642 ± 0.027 | 0.6789 ± 0.0065 | 0.525 ± 0.025 | 0.6858 ± 0.0031 | 0.49 ± 0.016 | 0.501 ± 0.028 | 0.623 ± 0.019 | 0.414 ± 0.022
26 | LFFWWVAVVFRV | 0.0928 ± 0.025 | 0.0916 ± 0.006 | 0.156 ± 0.049 | 0.236 ± 0.029 | 0.204 ± 0.016 | 0.133 ± 0.02 | 0.189 ± 0.014 | 0.23 ± 0.038
27 | MAMMQTILIIIH | 0.0295 ± 0.01 | 0.158 ± 0.14 | 0.117 ± 0.044 | 0.186 ± 0.014 | 0.0894 ± 0.029 | 0.119 ± 0.026 | 0.173 ± 0.0081 | 0.171 ± 0.0028
28 | VFTGYSAFLLLC | 0.325 ± 0.011 | 0.578 ± 0.025 | 0.487 ± 0.025 | 0.6366 ± 0.0041 | 0.0796 ± 0.016 | 0.0748 ± 0.014 | 0.0721 ± 0.0049 | 0.144 ± 0.011
29 | CLLLFFIFLLFL | 0.484 ± 0.065 | 0.452 ± 0.0092 | 0.387 ± 0.036 | 0.463 ± 0.032 | 0.49 ± 0.026 | 0.376 ± 0.024 | 0.493 ± 0.029 | 0.41 ± 0.05
30 | PGSIGVVIAVRS | 0.461 ± 0.019 | 0.512 ± 0.013 | 0.345 ± 0.044 | 0.574 ± 0.02 | 0.2863 ± 0.0007 | 0.363 ± 0.015 | 0.517 ± 0.0066 | 0.464 ± 0.0078
